Reference: the DeepSol protein solubility set

Experiment: soluble on expression in E. coli; label from the status in PepcDB or PDB records

Sequence | soluble on expression in E. coli
MNGVYDVGGTDGLGPINRPADEPVFRAEWEKVAFAMFPATFRAGFMGLDEFRFGIEQMNPAEYLESPYYWHWIRTYIHHGVRTGKIDLEELERRTQYYRENPDAPLPEHEQKPELIEFVNQAVYGGLPASREVDRPPKFKEGDVVRFSTASPKGHARRARYVRGKTGTVVKHHGAYIYPDTAGNGLGECPEHLYTVRFTAQELWGPEGDPNSSVYYDCWEPYIELVDT | soluble
SLQQSAKKNAAPAPAAQPAPAPTQPQADGAQQAGWVVRCTSVSRDAPLECAMEQNAVLTKTGQTIVLINIRIAPDTRTPVALLQLPLGLNLPIGAKLQVDEGKTVDLQIQTCENRGCYASTPIAADLLAALRSGKQLKVSFQNMAKETIAIPMPLGDFAAAYDKIK | not soluble
MTIDTDLDRTPAASSENPVEARRTQARAWFEGLRDRICAEIETLEREAPAELFPGEPATFTYKPWQRKTGAGGGVGGFLSNGRLFEKIGIHTSSANGKLTPEMAKNVPGDGSLDYVSTSISLIMHPRSPRVPTVHMNTRFLSTSQGWFGGGADLTPMLPEQRSQDAEDAVIFHTAMKHACDAHDPAYYDKFKPWADTYFFLPHRGVARGVGGIFFDYLNSGDFDRDFAFTRAVGSALLDVYPKIVRKRMIEPWTDAERAQQLACRGLYVEFNLLYDRGTMFGLQTGGNTETIMSSMPPLVSWSMAGDPLEHHHHHH | not soluble
MSLIGALIATIIPGLSNNSPPTQLSSLATLALPLPPPYTSTADTWRMVTIKPGQTLSSIFNELKLSSNDMERVLNYADLRKLLTRLSPGDEISFDIPNDGQLRGMRFNRDEKHRVELTLDDNTIHQQVSERQTSTRTVIASGEIKSSLWIAAREAGLSPADVITLTDEIFKYDIDFDKDLQTGDRFSVVMDETWREGERLPDAKILAATFNTGGKIYSGMRFMRDGKVEYFDKDGRPLKKSFIRMPISYARLSSTFGLRRHPILGTMRMHKGVDYAAATGTPIMAAGDARVQFIGQQRGYGNVVILNHGKGYRTLYGHMSRFGKIKAGQKINQGTVIGYVGMTGLATGPHLHYEFQVNGQHRNPLSITMPPPEPLRGKDLIAFRTQTAPLIAQIQQYEKRFYAITNKHDSKSTEKSTRGEGHHHHHH | not soluble
MSLHDVRVYHVQQPMRVGFGHPAATRTTSESVVLELDISGCVGLGECAPRSYVTGETCVTVCDALRSLPLARIIDELLSESPNDVLYRIKRLGIEAAFDFTAANNVVCIVELAILDWIGKRTRVSLDAMLRNGASLAESSAPIKISQVLDQNLTVDDFLRERGPFHFVKIKAHRDRAKDLETVTEIRRAIGDDTPIVIDANMSWSLIEAVEHVRKLREAGLTMVEEPFSKRSWTELHELRVQTGISIMLDESVSTLDDLRRAIGSDSCDAVNVRVSKCGGVLRSIEMIELAKSFGIQFQIGVQVAECGPLIQAGRLLASLHRDAIAVEGGQADRFFDSMIVSPDLSFDRARSTVPPPAGFGLGLSTSTEISKYLAFGYSRSADEWTATSHYTEAEGHHHHHH | soluble
MNYQDNSLKSLKLGQKTEYASQYDRTLLQPVPRALNRDGLGITQNQPFTIGADIWTAYEISWLNEKGLPQVAIADIYLDYQSQNLIESKSFKLYLNSFNQSKFADFNAVQQTMQRDLSECAQGDVKVRLNPMAVYDSQKIDHLQGDCIDEQDIEITSYEFNANWLKDCVSDEIVEEKLVSHLLKSNCLITNQPDWGTLHIHYVGKKINQEKLLRYVVSFRQHNEFHEQCVERIFCDLMHYAKPEKLTVYARYTRRGGLDINPFRSNFENLPENLRLARQ | soluble
VGQMVAVNGYKISVFVKGQGSQTLVFLSGAGTASPILDFKDVYDGFSKEYKIVVVERADYGYSEDTSKSRDVSVILSETRQSLAKSQVSGPYIILSHSMASLETLLWQENYPSEVKAVVCLDWAFPESYFQLKRHPQMLRLARWESQLGLLRLLPRQLYMPNENLSDSDRRLYQEIAYRQLLSQAMLNESLCAKENDKKVNSTSIKSQMPVLLMVSNGKGTGFGQEQWRHYATSFAKGQKNMEVTYYDSPHYFYHYQTKEMIRSIEEFVQETTD | not soluble
KEDYDRRSGKVSEPAPQATEEEDKVEVEPEDNGISSVADMSDGKESIAPKGHAVKPDEGAHSAKKTYKIQILSSTTKLKNGDKRLKGYKVVIEQRGGRFFYLTGAVSSEDEARHLRKKVRKSFPDAYIVVYEAGKRVREIY | not soluble
GKLVRRVLSINEVLGYNPDKGGISFIEAFSWDPVTDTHVFSAMGSSYILENKIATRLGIPGKKKKAIYDEIEKRAKILERLSDEGIVNYWEFFNTIAKITKSGMLRIQ | not soluble
